± gives the uncertainty stated by the source.
Experiment: self-splicing fitness, log relative to wild type (ln ratio); higher = more splicing; Tetrahymena group I intron in knt gene, E. coli kanamycin selection, DiMSum; sequences stand for … in CUCUCU…GGAGGGAAAAGUUAUCAGGCAUGCACCUGGUAGCUAGUCUUUAAACCAAUAGAUUGCAUCGGUUUAAAAGGCAAGACCGUCAAAUUGCGGGAAAGGGGUCAACAGCCGUUCAGUACCAAGUCUCAGGGGAAACUUUGAGAUGGCCUUGCAAAGGGUAUGGUAAUAAGCUGACGGACAUGGUCCUAACCACGCAGCCAAGUCCUAAGUCAACAGAUCUUCUGUUGAUAUGGAUGCAGUUCACAGACUAAAUGUCGGUCGGGGAAGAUGUAUUCUUCUCAUAAGAUAUAGUCGGACCUCUCCUUAAUGGGAGCUAGCGGAUGAAGUGAUGCAACACUGGAGCCGCUGGGAACUAAUUUGUAUGCGAAAGUAUAUUGAUUAGUUUUGGAGUACUCGUGGUCG
Outline: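 A randomised library covering all eight P1ex-region intron nucleotides was built with the intron in the knt kanamycin-resistance gene on pET-22b(+) and held in E. coli BL21(DE3). Cells were grown overnight at 37°C or 30°C on LB agar, with or without 25 μg/mL kanamycin, plus 100 μg/mL carbenicillin, 50 μM IPTG and 0.2% rhamnose, and pooled colonies were amplicon-sequenced on an Illumina HiSeq 2500. DiMSum fitness is the error-weighted combination of wild-type-normalised replicate fold changes, kanamycin versus none.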

Sequence | self-splicing fitness (ln) (37 °C) | self-splicing fitness (ln) (30 °C)
UACGAGCAAUAUUACGCAUC | -1.96 ± 0.21 | –
UACGAGCAAUAUUACGCGCC | – | -2.33 ± 0.42
UACGAGCAAUAUUACGCUCG | -1.74 ± 0.31 | –
UACGAGCAAUAUUACGGACG | -1.24 ± 0.15 | -2.32 ± 0.12
UACGAGCAAUAUUACGGAUA | -1.43 ± 0.12 | -2.3 ± 0.17
UACGAGCAAUAUUACGGCCA | -1.85 ± 0.18 | -1.61 ± 0.21
UACGAGCAAUAUUACGGGCU | -2.43 ± 0.27 | –
UACGAGCAAUAUUACGUACA | -1.22 ± 0.48 | -0.833 ± 0.27
UACUAGCAAUAUUACGAAUA | -0.474 ± 0.13 | -1.51 ± 0.18
UACUAGCAAUAUUACGAUGC | -2.54 ± 0.3 | -4.22 ± 0.26
UACUAGCAAUAUUACGCAGA | -2.27 ± 0.22 | -3.67 ± 0.47
UACUAGCAAUAUUACGCAUU | -1.81 ± 0.14 | -3.73 ± 0.21
UACUAGCAAUAUUACGCCGU | -2.67 ± 0.48 | -2.24 ± 0.25
UACUAGCAAUAUUACGCGAG | -1.59 ± 0.07 | -1.86 ± 0.072
UACUAGCAAUAUUACGCGCA | 0.207 ± 0.094 | -0.569 ± 0.071
UACUAGCAAUAUUACGCGGA | -1.42 ± 0.16 | -2.97 ± 0.18
UACUAGCAAUAUUACGCGGU | -2.52 ± 0.33 | -3.43 ± 0.47
UACUAGCAAUAUUACGCGUA | -2.33 ± 0.23 | -2.63 ± 0.22
UACUAGCAAUAUUACGCUAC | -2.01 ± 0.34 | –
UACUAGCAAUAUUACGCUAG | -2.08 ± 0.21 | -3.86 ± 0.25

Sequence | self-splicing fitness (ln) (37 °C) | self-splicing fitness (ln) (30 °C)
UACUAGCAAUAUUACGCUCU | -0.262 ± 0.1 | -0.792 ± 0.085
UACUAGCAAUAUUACGGAUC | -1.7 ± 0.24 | -2.66 ± 0.19
UACUAGCAAUAUUACGGAUG | -0.112 ± 0.11 | -0.926 ± 0.077
UACUAGCAAUAUUACGGCCU | -0.333 ± 0.11 | -1.25 ± 0.095
UACUAGCAAUAUUACGGCGC | -1.55 ± 0.31 | -1.6 ± 0.28
UACUAGCAAUAUUACGGGUA | -1.84 ± 0.13 | -2.08 ± 0.14
UACUAGCAAUAUUACGGUAU | -2.63 ± 0.36 | -2.78 ± 0.33
UACUAGCAAUAUUACGGUCC | -0.676 ± 0.16 | -1.59 ± 0.14
UACUAGCAAUAUUACGUAUU | -2.24 ± 0.15 | -4.56 ± 0.29
UACUAGCAAUAUUACGUCCA | -0.49 ± 0.13 | -0.715 ± 0.1
UACUAGCAAUAUUACGUGUA | -0.943 ± 0.14 | -3.12 ± 0.28
UACUAGCAAUAUUACGUUAU | -1.45 ± 0.14 | -3.58 ± 0.18
UAGAAGCAAUAUUACGACCU | -1.35 ± 0.14 | 0.0379 ± 0.17
UAGAAGCAAUAUUACGACGG | 0.0889 ± 0.14 | -0.626 ± 0.095
UAGAAGCAAUAUUACGCCAA | -1.39 ± 0.28 | -1.44 ± 0.29
UAGAAGCAAUAUUACGCCGU | -2.68 ± 0.36 | -2.41 ± 0.23
UAGAAGCAAUAUUACGCGAC | -2.08 ± 0.33 | -3.67 ± 0.32
UAGAAGCAAUAUUACGCGAG | -0.636 ± 0.12 | -0.342 ± 0.12
UAGAAGCAAUAUUACGCUAG | -0.412 ± 0.16 | -1.18 ± 0.13
UAGAAGCAAUAUUACGGAAU | -2.38 ± 0.36 | -2.11 ± 0.18
